Measurements taken from patent publication US20250122280A1, “ANTI-Ly6E ANTIBODIES, IMMUNOCONJUGATES, AND USES THEREOF” (Genentech, Inc., priority 2022, published 2025).
Each block holds one binder with its values, some of them ahead of it.

Experiments:
[1] = target: T1, Ly6E on cell lines known to express Ly6E (Kuramochi, NCI-H1781, HCC1569x2) (human, UniProt Q16553 21-101); assay: cell-based or functional assay
T1 sequence: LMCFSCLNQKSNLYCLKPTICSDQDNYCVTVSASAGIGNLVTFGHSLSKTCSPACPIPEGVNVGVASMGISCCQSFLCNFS

[2] = target: T1, Ly6E on cell lines known to express …; assay: flow cytometry on Kuramochi cells
Protocol: (§1) Cell lines were cultured as recommended by the ATCC. Prior to staining adherent lines were released by Accutase treatment, all cells were filtered and equilibrated in BD Stain buffer (BSA). […] Samples were fixed in 1% PFA (PBS) prior to analysis. Samples were assessed on a BD LSRFortessa. Following exclusion of dead cells, singlets were assessed for antibody binding using FlowJo software (FIGS. 2A-2C).

[3] = target: T1, Ly6E on cell lines known to express …; assay: flow cytometry on NCI-H1781 cells
[4] = target: T1, Ly6E on cell lines known to express …; assay: flow cytometry of Fabs on NCI-H1781 cells
Protocol: as §1

potency difference from non-target control, 5 day anti-proliferation assay (CellTiter-Glo), cell line NCl-H1781 [1]: > 400 fold
B1: chimeric (Ch) Ly6E 3A3 ThioMab drug conjugate with SN36325 (antibody, V domains shown)
VH: AVQLVEFGGGLVQPKESLKISCAASGFTFSTVAMHWVRQAPGKGLEWIARIRTKPVNYETYYADSVKGRFTISRDDSKSMVYLQMDNLKTEDAAMYYCSAPNYYDGTYSFAYWGQGTLVTVSS
VL: DIVMTQSPTSISISVGERVTMNCKASQNVGSNVDWYQQKTGQSPELLIYKASNRYTGVPGRFTGSGSGTDFTFTISNLQAEDLAVYYCMQSDTKYTFGAGTKVEIKR
modifications: engineered cysteine carrying the SN36325 (seco-CBI-dimer) linker-drug on heavy and/or light chain; position not stated

binding result [2]: binds
B2: chimeric anti-Ly6E antibody clone 3A3 (rat-human chimeric antibody) (antibody, human IgG1, kappa, V domains shown)
VH: AVQLVEFGGGLVQPKESLKISCAASGFTFSTVAMHWVRQAPGKGLEWIARIRTKPVNYETYYADSVKGRFTISRDDSKSMVYLQMDNLKTEDAAMYYCSAPNYYDGTYSFAYWGQGTLVTVSS
VL: DIVMTQSPTSISISVGERVTMNCKASQNVGSNVDWYQQKTGQSPELLIYKASNRYTGVPGRFTGSGSGTDFTFTISNLQAEDLAVYYCMQSDTKYTFGAGTKVEIKR
notes: Rat variable domains on human IgG1/kappa constant regions; also called Ch Ly6E 3A3

EC50 (read off the curve) [3]: ~2 µg/mL
B3: humanized anti-Ly6E (comprising SEQ ID NOs. 3 and 5) (antibody, human IgG1, kappa, V domains shown)
VH: EVQLVESGGGLVQPGGSLKLSCAASGFTFSTVAMHWVRQASGKGLEWVGRIRTKPVNYETYYADSVKGRFTISRDDSKSTVYLQMNSLKTEDTAVYYCSAPNYYDGTYSFAYWGQGTLVTVSS
VL: DIQMTQSPSSLSASVGDRVTITCKASQNVGSNVDWYQQKPGKAPKLLIYKASNRYTGVPSRFSGSGSGTDFTFTISSLQPEDIATYYCMQSETKYTFGQGTKVEIKR
notes: also called the humanized version; 3A3.v2.D92E

EC50 (read off the curve) [4]: ~10 nM
B4: Fab of humanized anti-Ly6E variant LC D92S (Fab, V domains shown)
VH: EVQLVESGGGLVQPGGSLKLSCAASGFTFSTVAMHWVRQASGKGLEWVGRIRTKPVNYETYYADSVKGRFTISRDDSKSTVYLQMNSLKTEDTAVYYCSAPNYYDGTYSFAYWGQGTLVTVSS
VL: DIQMTQSPSSLSASVGDRVTITCKASQNVGSNVDWYQQKPGKAPKLLIYKASNRYTGVPSRFSGSGSGTDFTFTISSLQPEDIATYYCMQSSTKYTFGQGTKVEIKR
notes: Fab made by proteolysis of the IgG; also called 3A3.v2.D92S

EC50 (read off the curve) [4]: ~10 nM
B5: Fab of humanized anti-Ly6E variant LC D92E (Fab, V domains shown)
VH: EVQLVESGGGLVQPGGSLKLSCAASGFTFSTVAMHWVRQASGKGLEWVGRIRTKPVNYETYYADSVKGRFTISRDDSKSTVYLQMNSLKTEDTAVYYCSAPNYYDGTYSFAYWGQGTLVTVSS
VL: DIQMTQSPSSLSASVGDRVTITCKASQNVGSNVDWYQQKPGKAPKLLIYKASNRYTGVPSRFSGSGSGTDFTFTISSLQPEDIATYYCMQSETKYTFGQGTKVEIKR
notes: Fab made by proteolysis of the IgG; also called 3A3.v2.D92E
